Test results taken from patent publication US20230406961A1 (published 2023).

T1: endoglin (CD105) (UniProt P17813 26-586)
T1 chain: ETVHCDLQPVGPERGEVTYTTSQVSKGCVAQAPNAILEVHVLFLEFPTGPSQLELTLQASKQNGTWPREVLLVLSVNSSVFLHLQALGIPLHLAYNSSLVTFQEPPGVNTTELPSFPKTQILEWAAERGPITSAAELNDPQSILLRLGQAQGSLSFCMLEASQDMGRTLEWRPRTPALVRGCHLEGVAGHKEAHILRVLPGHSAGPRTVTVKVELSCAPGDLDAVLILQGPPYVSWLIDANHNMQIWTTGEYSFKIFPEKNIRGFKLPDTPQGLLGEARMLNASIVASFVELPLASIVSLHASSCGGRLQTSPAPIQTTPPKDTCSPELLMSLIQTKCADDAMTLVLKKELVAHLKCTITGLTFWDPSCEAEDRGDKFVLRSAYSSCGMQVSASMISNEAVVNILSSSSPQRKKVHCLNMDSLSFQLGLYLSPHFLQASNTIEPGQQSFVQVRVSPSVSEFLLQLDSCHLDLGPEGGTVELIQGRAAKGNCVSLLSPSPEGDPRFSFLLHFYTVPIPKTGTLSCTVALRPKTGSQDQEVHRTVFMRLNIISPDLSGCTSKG


Assays:
Test in all cases: SPR (Biacore)
[1] = target: Endoglin_23
[2] = target: Endoglin_10
[3] = target: T1, endoglin (CD105)

| Kd [1] [nM] | Kd [2] [nM] | Kd [3] [nM] | Binder |
| --- | --- | --- | --- |
| 64 | 23.5 |  | Endoglin (receptor) ETVHCDLQPVGPERGEVTYTTSQVSKGCVAQAPNAILEVHVLFLEFPTGPSQLELTLQASKQNGTWPREVLLVLSVNSSVFLHLQALGIPLHLAYNSSLVTFQEPPGVNTTELPSFPKTQILEWAAERGPITSAAELNDPQSILLRLGQAQGSLSFCMLEASQDMGRTLEWRPRTPALVRGCHLEGVAGHKEAHILRVLPGHSAGPRTVTVKVELSCAPGDLDAVLILQGPPYVSWLIDANHNMQIWTTGEYSFKIFPEKNIRGFKLPDTPQGLLGEARMLNASIVASFVELPLASIVSLHASSCGGRLQTSPAPIQTTPPKDTCSPELLMSLIQTKCADDAMTLVLKKELVAHLKCTITGLTFWDPSCEAEDRGDKFVLRSAYSSCGMQVSASMISNEAVVNILSSSSPQRKKVHCLNMDSLSFQLGLYLSPHFLQASNTIEPGQQSFVQVRVSPSVSEFLLQLDSCHLDLGPEGGTVELIQGRAAKGNCVSLLSPSPEGDPRFSFLLHFYTVPIPKTGTLSCTVALRPKTGSQDQEVHRTVFMRLNIISPDLSGCTSKG |
|  |  | 2.44 | endoglin antibody clone Kro22 (humanized AB clone Kro22.2 / Kro22.6) (antibody, V domains shown) VH: QVQLVQSGAEVKKPGASVKVSCKASGYTFTSYWMHWVRQAPGQGLEWIGNIYPGSGSTFYDEKFKGRATLTVDTSISTAYMELSRLRSDDTAVYYCTRRNYVTGFDYWGQGTTVTVSS VL: DIQLTQSPSFLSASVGDRVTITCKSSQSVLYSSNQKNYLAWYQQKPGKAPKLLIYWASTRESGVPSRFSGSGSGTEFTLTISSLQPEDFATYYCHQYLSSYTFGQGTKLEIK |
